{"source": "paper PMC6820730", "about": "(2019)", "molecular_target": "AVPR1a (Homo sapiens, UniProt P37288)", "sequence (P37288 whole entry)": "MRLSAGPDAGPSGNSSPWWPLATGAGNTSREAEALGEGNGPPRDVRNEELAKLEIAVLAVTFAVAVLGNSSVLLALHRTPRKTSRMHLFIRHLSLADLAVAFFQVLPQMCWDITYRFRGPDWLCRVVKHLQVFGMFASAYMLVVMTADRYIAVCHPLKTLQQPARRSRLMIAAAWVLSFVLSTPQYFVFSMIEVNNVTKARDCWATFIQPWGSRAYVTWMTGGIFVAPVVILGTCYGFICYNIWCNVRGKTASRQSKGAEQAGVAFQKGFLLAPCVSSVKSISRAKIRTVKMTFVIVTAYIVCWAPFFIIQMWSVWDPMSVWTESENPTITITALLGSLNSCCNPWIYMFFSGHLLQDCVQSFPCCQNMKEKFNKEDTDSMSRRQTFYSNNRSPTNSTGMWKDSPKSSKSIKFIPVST", "assay": "125I-OVTA competition binding, intact CHO cells", "note": "No end group written: not given here.", "data": [{"binder": "CYIQNCPPG (not fully specified; cysteine pairing not given here)", "note": "[Pro8-OXT]", "values": [{"measurement": "Ki", "value": 8.71, "unit": "nM"}]}]}
